Substitutions are numbered along the chain they refer to.

Sequences and labels used below:
B1: Humanized 3F1 VL1,VH2 (antibody, V domains shown)
VH: QVQLVQSGAEVKKPGASVKISCKASGYTFTDHAIHWVRQAPGQGLEWIGYISPGNGDIKYNEKFKDRVTLTADKSSSTASMHLRSLRSDDTAVYFCKRSLLALDYWGQGTLVTVSS
VL: DIQMTQSPSSLSASVGDRVTITCKASQDVGTNIAWYQQKPGKAPKVLIYSASTRHTGVPSRFSGSGSGTDFTLTISSLQPEDFATYFCQQYSSFPLTFGQGTKVEIK
B2: Humanized 2G12-2B2 VL0,VH3 (antibody, V domains shown)
VH: EVQLVQSGAEVKKPGASVKVSCKASGYTFTDHAIHWVRQAPGQGLEWMGYFSPGNDDIKYNEKFRGRVTMTADKSSSTAYMELRSLRSDDTAVYFCKRSLSTPYWGQGTLVTVSS
VL: DIVMTQSPDSLAVSLGERATINCKSSQSLLNRGNHKNYLTWYQQKPGQPPKLLIYWASTRESGVPDRFSGSGSGTDFTLTISSLQAEDVAVYYCQNDYTYPYTFGQGTKVEIK
B3: Humanized 3F1 VL1,VH4 (antibody, V domains shown)
VH: B1 VH with Q1E, N55S
VL: B1 VL
B4: Humanized 3F1 VL1,VH3 (antibody, V domains shown)
VH: B1 VH with Q1E, I20V, I48M, N55S, L70M, S80Y, H82Q
VL: B1 VL
B5: Humanized 2G12-2B2 VL0,VH2 (antibody, V domains shown)
VH: B2 VH with E1Q, V20I, M48I, M70L
VL: B2 VL
B6: Humanized 2G12-2B2 VL2,VH1 (antibody, V domains shown)
VH: B2 VH with E1Q
VL: B2 VL with A19V, I21M, N22S
B7: Humanized 2G12-2B2 VL0,VH1 (antibody, V domains shown)
VH: B2 VH with E1Q
VL: B2 VL

One assay addresses bovine submaxillary mucin (bovine). The assay is described as follows: ELISA on BSM-coated wells; antibody from one liter production.
Regarding B1, the EC50 stood at 0.57 nM.

For B2, the EC50 came out at 0.8 nM.

For the next assay the target is unchanged. The assay is described as follows: ELISA on BSM-coated wells; periodate-sensitive signal.
The molecule B1 registered an EC50 of 1.4 nM.

As for B3, the EC50 was found to be 6.5 nM.

In the case of B4, the EC50 worked out at 12.2 nM.

In turn, B2 gave an EC50 of 4.2 nM.

As to B5, the EC50 was 1.8 nM.

With B6, the EC50 amounted to 4.4 nM.

In turn, B7 had an EC50 of 4.5 nM.

Values taken from patent US20230331868A1.
